From patent publication US10363306B2, “Cytokines and neuroantigens for treatment of immune disorders” (East Carolina University, priority 2009, dated 2019)

Tests used:
EAE in Lewis rats = assay: Treatment of ongoing EAE after disease onset; assay type: in vivo
[1] = test system: MBP-specific RsL.11 T cell clone; assay: Antigen-specific proliferation of RsL.11 T cell clone with irradiated splenic APC; assay type: cell-based, rat
Method: FIG. 2. Structure-function analysis of the cytokine and NAg domains of IFNβ fusion proteins. (A) Expression supernatants containing designated IFNβ fusion proteins (see Table 2) were added to cultures of BN-GP T cells at designated titrations (x-axis). (B) The IFNβ-EK-NAg-6his or IFNβ-EK-6his fusion genes were inserted into the pCEP4 expression vector (Invitrogen). Inserts were verified by DNA sequencing, and the genes were expressed by transient transfection of HEK293 cells. Independently derived expression systems of IFNβ-EK-NAg-6his or IFNβ-EK-6his (3 each) were compared in the BN-GP T cell anti-proliferative assay. (C) Independently purified preparations (2 each) of each IFN-β fusion protein (IFNβ-NAg from HEK293 cells, IFNβ-NAg from baculovirus, and IFN-β from HEK293 cells) were added at designated concentrations to assess anti-proliferative activity. Two independently purified preparations of the same fusion protein were tested to verify the reliability of activity for each type of protein. The x-axis was based on the exponent of the molar concentration. For example, a concentration of 100 nM was represented as Log [10^−7]=Log10) (10^−7M)=−7 and was plotted by the exponent of −7. For these experiments (A-C), BN-GP T cells were cultured in IL-2. (D) The MBP-specific RsL.11 T cell clone and irradiated splenic APC were cultured with designated concentrations of purified IFNβ-NAg or GPMBP in the presence or absence of the OX6 anti-MHC-II mAb. (E) Five preparations of purified IFNβ-NAg and six preparations of purified IFN-β were tested for antigenic activity in cultures of RsL.11 T cells and irradiated splenic APC.
The RsL.11 MBP-specific clone was a stable, IL-2 dependent line derived from Lewis rats sensitized with rat MBP in CFA (Mannie, M. D., and M. S. Norris. 2001. MHC class-II-restricted antigen presentation by myelin basic protein-specific CD4+ T cells causes prolonged desensitization and outgrowth of CD4-responders. Cell Immunol 212:51-62). The RsL.11T clone was a transformed variant of the RsL.11 clone. […]

[2] = Table 6 Experiment 1, s.c. day 9 (1 nmole), day 10 (1 nmole), day 12 (0.5 nmole) after DHFR-NAg in CFA day 0
[3] = Table 6 Experiment 2, 1 nmole s.c. on days 9, 10, 12, and 14 after DHFR-NAg in CFA day 0
[4] = Table 6 Experiments 1 & 2 compiled, treatment from day 9 after onset
[5] = Table 7 Experiment 1, 1 nmole s.c. days 10, 11, and 13, severe EAE = scores from 1.0 to 3.0
[6] = Table 7 Experiment 1, 1 nmole s.c. in saline days 10, 11, and 13, IFNβ + NAg as mixture
[7] = Table 7 Experiment 2, 1 nmole s.c. days 9, 10, 12, and 14, severe EAE = scores from 1.0 to 3.0
[8] = Table 7 Experiment 2, 1 nmole s.c. in saline days 9, 10, 12, and 14, IFNβ + NAg as mixture
[9] = Table 7 Experiment 3, 1 nmole s.c. days 9, 10, and 12, severe EAE = scores from 1.0 to 3.0
[10] = Table 7 Experiment 3, 1 nmole s.c. in saline days 9, 10, and 12, IFNβ + NAg as mixture
[11] = Table 7 Experiments 1-3 compiled, 1 nmole s.c. after onset
[12] = Table 7 Experiments 1-3 compiled, severe EAE = scores from 1.0 to 3.0

B1: IFNβ-NAg: Fusion protein: rat IFNβ, enterokinase linker (GDDDDKG), encephalitogenic 73-87 peptide of guinea pig MBP, C-terminal 6-histidine tag (protein)
chain: IDYKQLQFRQSTSIRTCQKLLRQLNGRLNLSYRTDFKIPMEVMHPSQMEKSYTAFAIQVMLQNVFLVFRSNFSSTGWNETIVESLLDELHQQTELLEIILKEKQEERLTWVTSTTTLGLKSYYWRVQRYLKDKKYNSYAWMVVRAEVFRNFSIILRLNRNFQNGDDDDKGPQKSQRSQDENPVVHHHHHH
- % mean maximal weight loss (EAE in Lewis rats; [2]): 3.8 ± 2.0%
- Incidence of severe EAE (EAE in Lewis rats; [2]): 1 of 6
- Mean # days with severe EAE (EAE in Lewis rats; [2]): 0.1 ± 0.2 days
- Mean cum. score (EAE in Lewis rats; [2]): 3.4 ± 2.1
- Mean maximal score (EAE in Lewis rats; [2]): 0.7 ± 0.6
- Median cum. score (EAE in Lewis rats; [2]): 3.5
- Median maximal score (EAE in Lewis rats; [2]): 0.5
- % mean maximal weight loss (EAE in Lewis rats; [3]): 6.4 ± 5.0%
- Incidence of severe EAE (EAE in Lewis rats; [3]): 1 of 5
- Mean # days with severe EAE (EAE in Lewis rats; [3]): 0.1 ± 0.2 days
- Mean cum. score (EAE in Lewis rats; [3]): 2.7 ± 1.5
- Mean maximal score (EAE in Lewis rats; [3]): 0.7 ± 0.8
- Median cum. score (EAE in Lewis rats; [3]): 2.3
- Median maximal score (EAE in Lewis rats; [3]): 0.3
- % mean maximal weight loss (EAE in Lewis rats; [4]): 5.0 ± 3.7%
- Incidence of severe EAE (EAE in Lewis rats; [4]): 2 of 11
- Mean # days with severe EAE (EAE in Lewis rats; [4]): 0.1 ± 0.2 days
- Mean cum. score (EAE in Lewis rats; [4]): 3.1 ± 1.8
- Mean maximal score (EAE in Lewis rats; [4]): 0.7 ± 0.7
- Median cum. score (EAE in Lewis rats; [4]): 2.8
- Median maximal score (EAE in Lewis rats; [4]): 0.5
- Incidence of severe EAE (EAE in Lewis rats; [5]): 0 of 5
- Mean # days with severe EAE (A-P) (EAE in Lewis rats; [5]): 0.3 ± 0.7 days
- Mean cum. score (EAE in Lewis rats; [6]): 1.7 ± 0.9
- Mean maximal score (EAE in Lewis rats; [6]): 0.4 ± 0.1
- Median cum. score (EAE in Lewis rats; [6]): 1.8
- Median maximal score (EAE in Lewis rats; [6]): 0.3
- Incidence of severe EAE (EAE in Lewis rats; [7]): 1 of 6
- Mean # days with severe EAE (A-P) (EAE in Lewis rats; [7]): 0.1 ± 0.2 days
- Mean cum. score (EAE in Lewis rats; [8]): 1.0 ± 0.7
- Mean maximal score (EAE in Lewis rats; [8]): 0.6 ± 0.7
- Median cum. score (EAE in Lewis rats; [8]): 0.8
- Median maximal score (EAE in Lewis rats; [8]): 0.4
- Incidence of severe EAE (EAE in Lewis rats; [9]): 0 of 7
- Mean # days with severe EAE (A-P) (EAE in Lewis rats; [9]): 0.0 ± 0.0 days
- Mean cum. score (EAE in Lewis rats; [10]): 1.7 ± 0.6
- Mean maximal score (EAE in Lewis rats; [10]): 0.4 ± 0.1
- Median cum. score (EAE in Lewis rats; [10]): 1.8
- Median maximal score (EAE in Lewis rats; [10]): 0.3
- Mean cum. score (EAE in Lewis rats; [11]): 1.4 ± 0.8
- Mean maximal score (EAE in Lewis rats; [11]): 0.4 ± 0.4
- Median cum. score (EAE in Lewis rats; [11]): 1.4
- Median maximal score (EAE in Lewis rats; [11]): 0.3
- Incidence of severe EAE (EAE in Lewis rats; [12]): 1 of 18
- Mean # days with severe EAE (A-P) (EAE in Lewis rats; [12]): 0.1 ± 0.4 days
- EAE-associated weight loss, mean (EAE in Lewis rats; experiment 1 of Table 7): 9.7%
- EAE-associated weight loss, mean (EAE in Lewis rats; experiment 2 of Table 7): 8.7%
- EAE-associated weight loss, mean (EAE in Lewis rats; experiment 3 of Table 7): 8.5%
- antigenic potency relative to GPMBP ([1]; at low concentrations, concentration eliciting half-maximal response): more potent than intact guinea pig myelin basic protein
- peak proliferative response ([1]; compared with GPMBP): substantially less than that stimulated by GPMBP

B2: IFNβ: Rat interferon beta cytokine with enterokinase linker and 6-histidine sequence, no neuroantigen (protein)
chain: IDYKQLQFRQSTSIRTCQKLLRQLNGRLNLSYRTDFKIPMEVMHPSQMEKSYTAFAIQVMLQNVFLVFRSNFSSTGWNETIVESLLDELHQQTELLEIILKEKQEERLTWVTSTTTLGLKSYYWRVQRYLKDKKYNSYAWMVVRAEVFRNFSIILRLNRNFQNGDDDDKGHHHHHH
- % mean maximal weight loss (EAE in Lewis rats; [2]): 10.6 ± 5.3%
- Incidence of severe EAE (EAE in Lewis rats; [2]): 5 of 6
- Mean # days with severe EAE (EAE in Lewis rats; [2]): 1.4 ± 1.1 days
- Mean cum. score (EAE in Lewis rats; [2]): 11.1 ± 5.1
- Mean maximal score (EAE in Lewis rats; [2]): 2.2 ± 0.8
- Median cum. score (EAE in Lewis rats; [2]): 10.3
- Median maximal score (EAE in Lewis rats; [2]): 2.0
- % mean maximal weight loss (EAE in Lewis rats; [3]): 20.7 ± 1.9%
- Incidence of severe EAE (EAE in Lewis rats; [3]): 3 of 5
- Mean # days with severe EAE (EAE in Lewis rats; [3]): 1.3 ± 1.4 days
- Mean cum. score (EAE in Lewis rats; [3]): 11.2 ± 5.9
- Mean maximal score (EAE in Lewis rats; [3]): 2.0 ± 1.0
- Median cum. score (EAE in Lewis rats; [3]): 8.3
- Median maximal score (EAE in Lewis rats; [3]): 2.0
- % mean maximal weight loss (EAE in Lewis rats; [4]): 15.2 ± 6.5%
- Incidence of severe EAE (EAE in Lewis rats; [4]): 8 of 11
- Mean # days with severe EAE (EAE in Lewis rats; [4]): 1.4 ± 1.2 days
- Mean cum. score (EAE in Lewis rats; [4]): 11.1 ± 5.2
- Mean maximal score (EAE in Lewis rats; [4]): 2.1 ± 0.8
- Median cum. score (EAE in Lewis rats; [4]): 8.3
- Median maximal score (EAE in Lewis rats; [4]): 2.0
- Incidence of severe EAE (EAE in Lewis rats; [7]): 6 of 6
- Mean # days with severe EAE (A-P) (EAE in Lewis rats; [7]): 1.9 ± 2.1 days
- Mean cum. score (EAE in Lewis rats; [8]): 7.2 ± 3.8
- Mean maximal score (EAE in Lewis rats; [8]): 2.2 ± 1.0
- Median cum. score (EAE in Lewis rats; [8]): 5.9
- Median maximal score (EAE in Lewis rats; [8]): 2.5
- Incidence of severe EAE (EAE in Lewis rats; [9]): 2 of 7
- Mean # days with severe EAE (A-P) (EAE in Lewis rats; [9]): 0.4 ± 0.6 days
- Mean cum. score (EAE in Lewis rats; [10]): 3.1 ± 2.2
- Mean maximal score (EAE in Lewis rats; [10]): 1.0 ± 1.1
- Median cum. score (EAE in Lewis rats; [10]): 2.5
- Median maximal score (EAE in Lewis rats; [10]): 0.5
- Mean cum. score (EAE in Lewis rats; [11]): 5.0 ± 3.6
- Mean maximal score (EAE in Lewis rats; [11]): 1.5 ± 1.2
- Median cum. score (EAE in Lewis rats; [11]): 4.0
- Median maximal score (EAE in Lewis rats; [11]): 1.0
- Incidence of severe EAE (EAE in Lewis rats; [12]): 8 of 13
- Mean # days with severe EAE (A-P) (EAE in Lewis rats; [12]): 1.1 ± 1.7 days
- course of EAE during treatment (EAE in Lewis rats; treatment after onset, disease rebound after cessation on day 12 or day 14): initial suppression of EAE
- stimulatory activity (antigen-specific proliferation) ([1]; independently purified preparations, RsL.11 T cells and irradiated splenic APC): devoid of stimulatory activity
